Assay [1] deals with T1, human recombinant CD123 protein (human, UniProt P26951 19-300).
T1 construct: range 19-300
T1 sequence (looked up): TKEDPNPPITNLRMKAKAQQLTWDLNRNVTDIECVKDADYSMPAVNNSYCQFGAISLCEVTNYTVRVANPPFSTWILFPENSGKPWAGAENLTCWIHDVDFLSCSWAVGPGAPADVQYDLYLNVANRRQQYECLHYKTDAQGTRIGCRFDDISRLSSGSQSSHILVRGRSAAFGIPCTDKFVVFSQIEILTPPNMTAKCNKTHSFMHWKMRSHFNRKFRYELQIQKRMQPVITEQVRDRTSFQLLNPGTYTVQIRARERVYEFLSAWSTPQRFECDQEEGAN
Briefly: ELISA of crude antibody extract on coated antigen, anti-HA detection; positive clone if OD450 is more than 5 times the control. As to the method:
2. CD33 protein or CD123 protein was diluted into 100 mM NaHCO₃ at pH 8.3. An ELISA plate was coated with 100 μg CD33 protein at 4° C. overnight. The next day, […] BSA-Biotin protein was added to the ELISA plate.
3. 100 μL of crude antibody extract obtained in the above step was transferred to the ELISA plate into which the antigen was added, and incubated at room temperature for 1 h.

Assay [2] deals with T2, human FCγRIIIa receptor (human, UniProt P08637 17-208, limits assumed).
T2 construct: Used in solution as the 'antigen' in BLI; also called FcγIIIa receptor
Briefly: BLI (Octet 96), antibody loaded on sensor, FCγRIIIa 200 nM and 2-fold dilutions in solution. As to the method: (§1) (3) Preparation of antigen working solution: 200 nM antigen (FCγRIIIa) in SD buffer was first prepared at and then serially diluted in 2 folds to prepare a total of 5 concentration gradients, in addition to which a zero concentration was prepared.
(§2) (11) Data analysis: related constants, such as KD, Kon, Koff, X2, Full R2 and the like were calculated in Data Analysis software.
(§3) In the examples of the present application, the modified bispecific antibody was subjected to BLI test to determine the affinity of the modified bispecific antibody to human FCγRIIIa.
On the technique in general: BLI is a label-free optical method that tracks binding on a fibre tip over time.

The target in assay [3] is T2, human FCγRIIIa receptor. The assay is described as follows: BLI; Ratio against the hIgG (hIgG1) control, fits KD(hIgG)/KD(sample). As to the method: as §1, §2, §3

T2 sequence (P08637 17-208 limits assumed): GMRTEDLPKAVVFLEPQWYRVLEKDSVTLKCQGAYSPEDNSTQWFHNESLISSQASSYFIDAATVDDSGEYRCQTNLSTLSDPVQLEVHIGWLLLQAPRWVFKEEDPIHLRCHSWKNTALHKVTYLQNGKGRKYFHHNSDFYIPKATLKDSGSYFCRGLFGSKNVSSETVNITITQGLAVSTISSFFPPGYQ

B1: anti-CD123 single domain antibody (VHH)
VHH: QVQLVESGGGSVQAGGSLKLSCAASRFIFSRCGMGWFRQAPGKERELVSTISGDGTTFYADSVKGRFTISQHNAATTLYLQMNSLKLEDTAVYYCAADCYNRKYWGQGTQVTVSS
notes: Tested as crude extract from the pMECS clone and detected through an HA tag; also called second VHH
For B1, the binding result in assay [1] was “binds”.

B2: bispecific antibody BM#26 against CD33 and CD123 (bispecific antibody, human IgG1)
chain 1: QVQLVESGGGSVQAGGSLRLSCAASGYTYSSTCIGWFRQAPGKDREGVAFAYTGGGVTYADSVKGRFTISQDNAKNTVHLIMNSLKPEDTAMYYCAAKTRGGCWAAAAFYNYWGQGTQVTVSSEPKSCDKTHTCPPCPAPELLGGPSVFLFPPKPKDTLMISRTPEVTCVVVDVSHEDPEVKFNWYVDGVEVHNAKTKPREEQYNSTYRVVSVLTVLHQDWLNGKEYKCKVSNKALPAPIEKTISKAKGQPREPQVYTLPPSRKKLTKNQVSLTCLVKGFYPSDIAVEWESNGQPENNYKTTPPVLVSDGSFTLYSKLTVDKSRWQQGNVFSCSVMHEALHNHYTQKSLSLSPGK
chain 2: QVQLVESGGGSVQAGGSLKLSCAASRFIFSRCGMGWFRQAPGKERELVSTISGDGTTFYADSVKGRFTISQHNAATTLYLQMNSLKLEDTAVYYCAADCYNRKYWGQGTQVTVSSEPKSCDKTHTCPPCPAPELLGGPSVFLFPPKPKDTLMISRTPEVTCVVVDVSHEDPEVKFNWYVDGVEVHNAKTKPREEQYNSTYRVVSVLTVLHQDWLNGKEYKCKVSNKALPAPIEKTISKAKGQPREPQVYTLPPSRDELTKNQVSLTCLVEGFYPSDIAVEWESNGQPENNYKTTPPVLDSDGSFFLYSWLTVDKSRWQQGNVFSCSVMHEALHNHYTQESLSLSPGK
notes: VHH-Fc heterodimer
Turning to B2, the dissociation constant Kd (commonly a measure of binding affinity in units of concentration) in the assay with human FCγRIIIa receptor [2] turned out to be 0.0769 µM. For the same molecule, the Ratio with human FCγRIIIa receptor [3] stood at 1.15.

B3: bispecific antibody BM#29 against CD33 and CD123 (bispecific antibody, human IgG1)
chain 1: QVQLVESGGGSVQAGGSLRLSCAASGYTYSSTCIGWFRQAPGKDREGVAFAYTGGGVTYADSVKGRFTISQDNAKNTVHLIMNSLKPEDTAMYYCAAKTRGGCWAAAAFYNYWGQGTQVTVSSEPKSCDKTHTCPPCPAPELLGGPSVFLFPPKPKDTLMISRTPEVTCVVVDVSHEDPEVKFNWYVDGVEVHNAKTKPREEQYNSTYRVVSVLTVLHQDWLNGKEYKCKVSNKALPAPIEKTISKAKGQPREPRVYTLPPSRKELTKNQVSLTCLVKGFYPSDIAVEWESNGQPENNYKTTPPVLDSDGSFFLASKLTVDKSRWQQGNVFSCSVMHEALHNHYTQKSLSLSPGK
chain 2: QVQLVESGGGSVQAGGSLKLSCAASRFIFSRCGMGWFRQAPGKERELVSTISGDGTTFYADSVKGRFTISQHNAATTLYLQMNSLKLEDTAVYYCAADCYNRKYWGQGTQVTVSSEPKSCDKTHTCPPCPAPELLGGPSVFLFPPKPKDTLMISRTPEVTCVVVDVSHEDPEVKFNWYVDGVEVHNAKTKPREEQYNSTYRVVSVLTVLHQDWLNGKEYKCKVSNKALPAPIEKTISKAKGQPREPQVYTLPPSRDELTDNQVSLTCLVKGFYPSDIAVEWESNGQPENNYKTTPPVLDSDGSFFLYSVLTVDKSRWQQGNVFSCSVMHEALHNHYTQESLSLSPGK
notes: VHH-Fc heterodimer; also called BM-RT2831-#29
Consider B3, for which the Kd in the assay with human FCγRIIIa receptor [2] amounted to 0.0739 µM. Further, in the assay with human FCγRIIIa receptor [3], the Ratio was 1.2.

B4: bispecific antibody BM#32 against CD33 and CD123 (bispecific antibody, human IgG1)
chain 1: QVQLVESGGGSVQAGGSLRLSCAASGYTYSSTCIGWFRQAPGKDREGVAFAYTGGGVTYADSVKGRFTISQDNAKNTVHLIMNSLKPEDTAMYYCAAKTRGGCWAAAAFYNYWGQGTQVTVSSEPKSCDKTHTCPPCPAPELLGGPSVFLFPPKPKDTLMISRTPEVTCVVVDVSHEDPEVKFNWYVDGVEVHNAKTKPREEQYNSTYRVVSVLTVLHQDWLNGKEYKCKVSNKALPAPIEKTISKAKGQPREPRVYTLPPSRDDLTKNQVSLTCLVKGFYPSDIAVEWESNGQPENNYKTTPPVLDSDGSFFLASKLTVDKSRWQQGNVFSCSVMHEALHNHYTQKSLSLSPGK
chain 2: QVQLVESGGGSVQAGGSLKLSCAASRFIFSRCGMGWFRQAPGKERELVSTISGDGTTFYADSVKGRFTISQHNAATTLYLQMNSLKLEDTAVYYCAADCYNRKYWGQGTQVTVSSEPKSCDKTHTCPPCPAPELLGGPSVFLFPPKPKDTLMISRTPEVTCVVVDVSHEDPEVKFNWYVDGVEVHNAKTKPREEQYNSTYRVVSVLTVLHQDWLNGKEYKCKVSNKALPAPIEKTISKAKGQPREPQVYTLPPSRDELTDNQVSLTCLVYGFYPSDIAVEWESNGQPENNYKTTPPVLDSDGSFFLYSVLTVDKSRWQQGNVFSCSVMHEALHNHYTQKSLSLSPGK
notes: VHH-Fc heterodimer; also called BM-RT2831-#32
The molecule B4 gave a Kd with human FCγRIIIa receptor [2] of 0.076 µM. Besides, in the assay with human FCγRIIIa receptor [3], the Ratio was 1.17.

B5: bispecific antibody BM#30 against CD33 and CD123 (bispecific antibody, human IgG1)
chain 1: QVQLVESGGGSVQAGGSLRLSCAASGYTYSSTCIGWFRQAPGKDREGVAFAYTGGGVTYADSVKGRFTISQDNAKNTVHLIMNSLKPEDTAMYYCAAKTRGGCWAAAAFYNYWGQGTQVTVSSEPKSCDKTHTCPPCPAPELLGGPSVFLFPPKPKDTLMISRTPEVTCVVVDVSHEDPEVKFNWYVDGVEVHNAKTKPREEQYNSTYRVVSVLTVLHQDWLNGKEYKCKVSNKALPAPIEKTISKAKGQPREPRVYTLPPSRDKLTKNQVSLTCLVKGFYPSDIAVEWESNGQPENNYKTTPPVLDSDGSFFLASKLTVDKSRWQQGNVFSCSVMHEALHNHYTQKSLSLSPGK
chain 2: QVQLVESGGGSVQAGGSLKLSCAASRFIFSRCGMGWFRQAPGKERELVSTISGDGTTFYADSVKGRFTISQHNAATTLYLQMNSLKLEDTAVYYCAADCYNRKYWGQGTQVTVSSEPKSCDKTHTCPPCPAPELLGGPSVFLFPPKPKDTLMISRTPEVTCVVVDVSHEDPEVKFNWYVDGVEVHNAKTKPREEQYNSTYRVVSVLTVLHQDWLNGKEYKCKVSNKALPAPIEKTISKAKGQPREPQVYTLPPSRDELTDNQVSLTCLVEGFYPSDIAVEWESNGQPENNYKTTPPVLDSDGSFFLYSVLTVDKSRWQQGNVFSCSVMHEALHNHYTQKSLSLSPGK
notes: VHH-Fc heterodimer; also called BM-RT2831-#30
In turn, B5 had a Kd with human FCγRIIIa receptor [2] of 0.0696 µM. Also, in the assay with human FCγRIIIa receptor [3], the Ratio was found to be 1.27.

B6: bispecific antibody BM#36 against CD33 and CD123 (bispecific antibody, human IgG1)
chain 1: not shown
chain 2: QVQLVESGGGSVQAGGSLKLSCAASRFIFSRCGMGWFRQAPGKERELVSTISGDGTTFYADSVKGRFTISQHNAATTLYLQMNSLKLEDTAVYYCAADCYNRKYWGQGTQVTVSSEPKSCDKTHTCPPCPAPELLGGPSVFLFPPKPKDTLMISRTPEVTCVVVDVSHEDPEVKFNWYVDGVEVHNAKTKPREEQYNSTYRVVSVLTVLHQDWLNGKEYKCKVSNKALPAPIEKTISKAKGQPREPQVYTLPPSRDELTKNQVSLTCLVKGFYPSDIAVEWESNGQPENNYKTSPPALDSDGSFALVSKLTVDKSRWQQGNVFSCSVMHEALHNHYTQKSLSLSPGK
notes: VHH-Fc heterodimer
Turning to B6, in the assay with human FCγRIIIa receptor [2], the affinity, expressed as Kd, was 0.0642 µM. The Ratio with human FCγRIIIa receptor [3] is 1.38.

B7: bispecific antibody BM#27 against CD33 and CD123 (bispecific antibody, human IgG1)
chain 1: QVQLVESGGGSVQAGGSLRLSCAASGYTYSSTCIGWFRQAPGKDREGVAFAYTGGGVTYADSVKGRFTISQDNAKNTVHLIMNSLKPEDTAMYYCAAKTRGGCWAAAAFYNYWGQGTQVTVSSEPKSCDKTHTCPPCPAPELLGGPSVFLFPPKPKDTLMISRTPEVTCVVVDVSHEDPEVKFNWYVDGVEVHNAKTKPREEQYNSTYRVVSVLTVLHQDWLNGKEYKCKVSNKALPAPIEKTISKAKGQPREPQVYTLPPSRKDLTKNQVSLTCLVKGFYPSDIAVEWESNGQPENNYKTTPPVLVSDGSFTLYSKLTVDKSRWQQGNVFSCSVMHEALHNHYTQKSLSLSPGK
chain 2: QVQLVESGGGSVQAGGSLKLSCAASRFIFSRCGMGWFRQAPGKERELVSTISGDGTTFYADSVKGRFTISQHNAATTLYLQMNSLKLEDTAVYYCAADCYNRKYWGQGTQVTVSSEPKSCDKTHTCPPCPAPELLGGPSVFLFPPKPKDTLMISRTPEVTCVVVDVSHEDPEVKFNWYVDGVEVHNAKTKPREEQYNSTYRVVSVLTVLHQDWLNGKEYKCKVSNKALPAPIEKTISKAKGQPREPQVYTLPPSRDELTKNQVSLTCLVYGFYPSDIAVEWESNGQPENNYKTTPPVLDSDGSFFLYSWLTVDKSRWQQGNVFSCSVMHEALHNHYTQESLSLSPGK
notes: VHH-Fc heterodimer; also called BM-RT2831-#27
B7: the Kd with human FCγRIIIa receptor [2] came to 0.0969 µM. The Ratio with human FCγRIIIa receptor [3] was found to be 0.91.

B8: bispecific antibody BM#28 against CD33 and CD123 (bispecific antibody, human IgG1)
chain 1: QVQLVESGGGSVQAGGSLRLSCAASGYTYSSTCIGWFRQAPGKDREGVAFAYTGGGVTYADSVKGRFTISQDNAKNTVHLIMNSLKPEDTAMYYCAAKTRGGCWAAAAFYNYWGQGTQVTVSSEPKSCDKTHTCPPCPAPELLGGPSVFLFPPKPKDTLMISRTPEVTCVVVDVSHEDPEVKFNWYVDGVEVHNAKTKPREEQYNSTYRVVSVLTVLHQDWLNGKEYKCKVSNKALPAPIEKTISKAKGQPREPQVYTLPPSRKDLTKNQVSLTCLVKGFYPSDIAVEWESNGQPENNYKTTPPVLKSDGSFFLYSKLTVDKSRWQQGNVFSCSVMHEALHNHYTQKSLSLSPGK
chain 2: QVQLVESGGGSVQAGGSLKLSCAASRFIFSRCGMGWFRQAPGKERELVSTISGDGTTFYADSVKGRFTISQHNAATTLYLQMNSLKLEDTAVYYCAADCYNRKYWGQGTQVTVSSEPKSCDKTHTCPPCPAPELLGGPSVFLFPPKPKDTLMISRTPEVTCVVVDVSHEDPEVKFNWYVDGVEVHNAKTKPREEQYNSTYRVVSVLTVLHQDWLNGKEYKCKVSNKALPAPIEKTISKAKGQPREPQVYTLPPSRDELTKNQVSLTCLVYGFYPSDIAVEWESNGQPENNYKTTPPVLDSDGSFFLYSDLTVDKSRWQQGNVFSCSVMHEALHNHYTQESLSLSPGK
notes: VHH-Fc heterodimer
For the molecule B8, in the assay with human FCγRIIIa receptor [2], binding was put at a Kd of 0.0613 µM. In addition, the Ratio with human FCγRIIIa receptor [3] amounted to 1.45.

The record behind these values is patent US20250163166A1 (REGENECORE BIOTECH, published 2025).
